Reference: the Human Domainome abundance scans (Beltran et al. 2025)
± gives the uncertainty stated by the source.

B1: Chromodomain-helicase-DNA-binding protein 4, residues 623 to 675; numbered along this chain, Q14839 (parent)
chain: MIHRILNHSVDKKGHVHYLIKWRDLPYDQASWESEDVEIQDYDLFKQSYWNHR

Variants of: B1
Experiment: abundance fitness (aPCA) (normalised: wild type 0, dead -1); higher = more abundant; growth selection in yeast, the domain comes from the species named
Conditions: Homo sapiens

With D43E as the variant, how does the abundance fitness read?
Its abundance fitness is 0.099 ± 0.1.

With D43F as the variant, how does the abundance fitness read?
The abundance fitness was -0.394 ± 0.16.

With D43G as the variant, how does the abundance fitness read?
Its abundance fitness is -0.147 ± 0.092.

With D43H as the variant, how does the abundance fitness read?
The abundance fitness was -0.186 ± 0.13.

Which abundance fitness does the source give for D43I here?
Its abundance fitness is -0.862 ± 0.25.

With D43K as the variant, how does the abundance fitness read?
The abundance fitness was -0.456 ± 0.14.

Which abundance fitness does the source give for D43L here?
Its abundance fitness is -0.423 ± 0.084.

With D43M as the variant, how does the abundance fitness read?
The abundance fitness was -0.262 ± 0.13.

For D43N, which abundance fitness is on record?
Its abundance fitness is -0.161 ± 0.12.

Which abundance fitness does the source give for D43Q here?
Its abundance fitness is -0.047 ± 0.11.

Which abundance fitness does the source give for D43R here?
Its abundance fitness is -0.577 ± 0.1.

With D43S as the variant, how does the abundance fitness read?
Its abundance fitness is -0.307 ± 0.088.

For D43T, which abundance fitness is on record?
Its abundance fitness is -0.367 ± 0.12.

For D43W, which abundance fitness is on record?
The abundance fitness was -0.219 ± 0.13.

With D43Y as the variant, how does the abundance fitness read?
Its abundance fitness is -0.253 ± 0.15.

Which abundance fitness does the source give for L44A here?
The abundance fitness was -0.014 ± 0.069.

For L44C, which abundance fitness is on record?
Its abundance fitness is -0.293 ± 0.13.

Which abundance fitness does the source give for L44D here?
The abundance fitness was -0.16 ± 0.087.

With L44E as the variant, how does the abundance fitness read?
The abundance fitness was -0.211 ± 0.15.

For L44F, which abundance fitness is on record?
The abundance fitness was -0.201 ± 0.11.

For L44G, which abundance fitness is on record?
The abundance fitness was -0.342 ± 0.073.

Which abundance fitness does the source give for L44H here?
Its abundance fitness is -0.034 ± 0.077.

Which abundance fitness does the source give for L44K here?
The abundance fitness was 0.111 ± 0.2.

For L44M, which abundance fitness is on record?
The abundance fitness was 0.085 ± 0.13.

With L44N as the variant, how does the abundance fitness read?
Its abundance fitness is -0.131 ± 0.092.

For L44P, which abundance fitness is on record?
Its abundance fitness is -0.91 ± 0.098.

For L44Q, which abundance fitness is on record?
Its abundance fitness is -0.11 ± 0.12.

With L44R as the variant, how does the abundance fitness read?
The abundance fitness was 0.058 ± 0.072.

With L44S as the variant, how does the abundance fitness read?
Its abundance fitness is -0.015 ± 0.069.

Which abundance fitness does the source give for L44V here?
The abundance fitness was 0.074 ± 0.074.

Which abundance fitness does the source give for L44W here?
The abundance fitness was -0.302 ± 0.18.

Which abundance fitness does the source give for L44Y here?
The abundance fitness was -0.089 ± 0.084.

For F45A, which abundance fitness is on record?
The abundance fitness was -0.013 ± 0.085.

With F45C as the variant, how does the abundance fitness read?
The abundance fitness was -0.306 ± 0.11.

With F45D as the variant, how does the abundance fitness read?
The abundance fitness was -0.568 ± 0.12.

Which abundance fitness does the source give for F45E here?
The abundance fitness was -0.735 ± 0.28.

With F45G as the variant, how does the abundance fitness read?
The abundance fitness was -0.856 ± 0.12.

Which abundance fitness does the source give for F45H here?
The abundance fitness was 0.119 ± 0.09.

For F45I, which abundance fitness is on record?
The abundance fitness was -0.423 ± 0.085.

For F45K, which abundance fitness is on record?
Its abundance fitness is -0.391 ± 0.15.

With F45L as the variant, how does the abundance fitness read?
The abundance fitness was -0.388 ± 0.08.

Which abundance fitness does the source give for F45M here?
The abundance fitness was -0.283 ± 0.13.

With F45N as the variant, how does the abundance fitness read?
The abundance fitness was -0.627 ± 0.12.

With F45P as the variant, how does the abundance fitness read?
Its abundance fitness is -0.857 ± 0.11.

With F45Q as the variant, how does the abundance fitness read?
The abundance fitness was -0.71 ± 0.16.

For F45R, which abundance fitness is on record?
The abundance fitness was -0.757 ± 0.099.

With F45S as the variant, how does the abundance fitness read?
Its abundance fitness is -0.444 ± 0.077.

For F45T, which abundance fitness is on record?
Its abundance fitness is -0.64 ± 0.12.

With F45V as the variant, how does the abundance fitness read?
The abundance fitness was -0.616 ± 0.1.

With F45W as the variant, how does the abundance fitness read?
The abundance fitness was -0.279 ± 0.13.

With K46A as the variant, how does the abundance fitness read?
The abundance fitness was -0.898 ± 0.16.

For K46D, which abundance fitness is on record?
The abundance fitness was -0.886 ± 0.16.

With K46E as the variant, how does the abundance fitness read?
The abundance fitness was -0.734 ± 0.16.

Which abundance fitness does the source give for K46F here?
The abundance fitness was -0.917 ± 0.17.

Which abundance fitness does the source give for K46G here?
The abundance fitness was -0.846 ± 0.099.

Which abundance fitness does the source give for K46H here?
The abundance fitness was -0.909 ± 0.19.

Which abundance fitness does the source give for K46I here?
The abundance fitness was -0.465 ± 0.14.

Which abundance fitness does the source give for K46L here?
Its abundance fitness is -0.593 ± 0.089.

Which abundance fitness does the source give for K46N here?
The abundance fitness was -0.886 ± 0.16.

For K46P, which abundance fitness is on record?
The abundance fitness was -0.875 ± 0.13.

Which abundance fitness does the source give for K46Q here?
Its abundance fitness is -0.485 ± 0.1.

With K46R as the variant, how does the abundance fitness read?
Its abundance fitness is -0.796 ± 0.09.

Which abundance fitness does the source give for K46S here?
The abundance fitness was -0.838 ± 0.1.

With K46T as the variant, how does the abundance fitness read?
The abundance fitness was -0.748 ± 0.13.

Which abundance fitness does the source give for K46W here?
The abundance fitness was -0.856 ± 0.15.

For K46Y, which abundance fitness is on record?
The abundance fitness was -0.856 ± 0.15.

With Q47A as the variant, how does the abundance fitness read?
Its abundance fitness is -0.114 ± 0.1.

Which abundance fitness does the source give for Q47C here?
Its abundance fitness is -0.423 ± 0.096.

Which abundance fitness does the source give for Q47D here?
The abundance fitness was -0.289 ± 0.11.

For Q47E, which abundance fitness is on record?
Its abundance fitness is -0.052 ± 0.11.

For Q47F, which abundance fitness is on record?
The abundance fitness was -0.318 ± 0.13.

With Q47G as the variant, how does the abundance fitness read?
The abundance fitness was -0.483 ± 0.088.

Which abundance fitness does the source give for Q47H here?
The abundance fitness was -0.051 ± 0.14.

For Q47I, which abundance fitness is on record?
Its abundance fitness is 0.132 ± 0.12.

For Q47K, which abundance fitness is on record?
The abundance fitness was 0.239 ± 0.12.

Which abundance fitness does the source give for Q47L here?
Its abundance fitness is -0.374 ± 0.094.

For Q47M, which abundance fitness is on record?
The abundance fitness was -0.452 ± 0.14.

For Q47N, which abundance fitness is on record?
Its abundance fitness is 0.087 ± 0.11.

Which abundance fitness does the source give for Q47P here?
The abundance fitness was -0.804 ± 0.16.

For Q47R, which abundance fitness is on record?
Its abundance fitness is -0.084 ± 0.078.

Which abundance fitness does the source give for Q47S here?
Its abundance fitness is -0.05 ± 0.081.

With Q47T as the variant, how does the abundance fitness read?
Its abundance fitness is 0.022 ± 0.099.

Which abundance fitness does the source give for Q47W here?
Its abundance fitness is -0.475 ± 0.11.

With Q47Y as the variant, how does the abundance fitness read?
The abundance fitness was -0.343 ± 0.16.
